Our source for the switch fluorescence ratio values is the supplement of paper PMC10126150.

± gives the standard deviation of the averaged measurements.
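Note: ATP exposure 15 min at 22 °C before imaging.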

This data set concerns ATP. The experiment in a line: switch fluorescence ratio, 500 uM ATP over buffer (Cy3 cluster intensity, sum of 5 cycles each) (fold (ratio)); higher = stronger signal-on switching upon ATP binding; sequences stand for … in TCGTCGGCAGCGTCAGATGTGTATAAGAGACAGTTTTTTTTTTTTTTTTTTTTTTTTT…TC. The following applies: aptamer strand: ATP DNA aptamer (quencher-CACCTGGGGGAGTATTGCGGAGGAAGG + anchor), 100 nM annealed; ATP concentration: 500 uM. An outline of the steps:
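Imaging in selection buffer was followed by imaging after 15 min with 500 uM ATP at 22 °C, for Cy3-labelled switching-strand clusters annealed to 100 nM quencher-labelled ATP aptamer on a modified Illumina MiSeq flow-cell. Five of these buffer/ATP cycles ran, separated by NaOH stripping and re-annealing. The fluorescence ratio per cluster is summed target-cycle over summed buffer-cycle Cy3 intensity, averaged per switch-domain sequence; clusters outside 100-1000 RFU were removed.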
GATAGGTATA: the switch fluorescence ratio is 1.01 ± 0.032.
With GTGGTTCTTT, the switch fluorescence ratio was 0.989 ± 0.044.
In the case of AAAGCTGGGG, the switch fluorescence ratio turned out to be 0.981 ± 0.048.
The value for GTAGTTCATG was 0.96 ± 0.018; that for AGTGGTCCTT was 0.974 ± 0.047; that for TCAGGTGTTT was 1.56 ± 0.51.
As for CCTGGGGGAA, the switch fluorescence ratio amounted to 1.025 ± 0.0073.
With GAGGGATATA the figure was 0.996 ± 0.043; with CAAGGGTAGG, 1.04 ± 0.021.
With CTTAAAGTGC the figure was 1.05 ± 0.069; with AAGGGGCGCT, 1.01 ± 0.039; with GTGGTACAGG, 1.02 ± 0.068.
On to GTTTTTATGG, for which the switch fluorescence ratio was determined as 0.997 ± 0.03.
The value for GAAAAGTAAG was 1.018 ± 0.008; that for TTAGAAAAGA was 1 ± 0.033; that for TTAGTAGTGT was 0.973 ± 0.0063.
The value for ATAGGCATGC was 1.06 ± 0.067; that for ATTTGGACGA was 1 ± 0.03.
With GAGGGTTGAA the figure was 0.999 ± 0.033.
As to CACGGTTGTT, the switch fluorescence ratio was 1.015 ± 0.0074.
With GGTTTTGTAG the figure was 0.999 ± 0.012.
The value for TGAAGGGAAC was 1.06 ± 0.13; that for ACATAGGTCA was 1.02 ± 0.022; that for AGTGTGCGGT was 0.9491 ± 0.0089.
Take AAGCGGTTG: the switch fluorescence ratio worked out at 1.005 ± 0.006.
With GGGGTTTGCT the figure was 0.973 ± 0.033; with CCATGGCTGG, 1 ± 0.016; with TGAGTGTGGG, 0.99 ± 0.03.
Consider CTTAGCTTGC, for which the switch fluorescence ratio was determined as 1.02 ± 0.054.
As for CGGGGGGGGG, the switch fluorescence ratio was found to be 1.02 ± 0.054.
As to TTTTAATATT, the switch fluorescence ratio stood at 1.05 ± 0.11.
As for CTAAAGAGCA, the switch fluorescence ratio is 1.03 ± 0.073.
In the case of TGAGATTAAA, the switch fluorescence ratio stood at 1.01 ± 0.0098.
Regarding GGGAGAGCGT, the switch fluorescence ratio was determined as 0.966 ± 0.018.
The value for GCACTTTACG was 1.28 ± 0.06.
With TGTTGCGTGC, the switch fluorescence ratio turned out to be 1.03 ± 0.038.
With GGGCAGTAGG, the switch fluorescence ratio amounted to 1 ± 0.025.
The value for GCTGGGGTTA was 0.996 ± 0.019; that for AGTGGGGGTA was 0.995 ± 0.028; that for CCCCGGTTA was 1.46 ± 0.12.
The value for CCTGTAAATG was 1.15 ± 0.21; that for TTTGGAAGGG was 1 ± 0.026.
The value for GATCGTATAT was 0.9987 ± 0.0084.
For ATGATTTAGG, the switch fluorescence ratio came to 0.9998 ± 0.0095.
The value for TTCACGGACC was 1.455 ± 0.013.
As to GTGGACGTTT, the switch fluorescence ratio turned out to be 1.02 ± 0.057.
With TTCGTCCTGG the figure was 1.01 ± 0.056.
The value for GGGGTGGTTA was 0.9948 ± 0.005; that for GAGTTGAAAA was 0.9868 ± 0.001; that for CTCATGACGG was 1.044 ± 0.0061.
With GGGAGAACGA the figure was 0.984 ± 0.015; with AAGGTAGTCT, 1 ± 0.024.
Regarding GATAACGGGG, the switch fluorescence ratio was 0.972 ± 0.02.
The value for GGGTTTTCGA was 1.014 ± 0.0011; that for TGGTTGATAG was 0.9916 ± 0.0065.
Take TCGTTGTGTG: the switch fluorescence ratio turned out to be 0.981 ± 0.019.
GATGATTTGT: the switch fluorescence ratio was found to be 1.02 ± 0.058.
TAAGAAGGGT: the switch fluorescence ratio was determined as 0.991 ± 0.024.
For ACATAAAAGG, the switch fluorescence ratio came to 0.994 ± 0.021.
Consider TCCGTTATTT, for which the switch fluorescence ratio was 1.021 ± 0.0092.
The value for TTGGGCGAGG was 1.025 ± 0.0075; that for AAGCGCAGAC was 2.32 ± 0.079; that for CCAGGGCTAG was 1.02 ± 0.062.
In the case of ACTTAGGAGA, the switch fluorescence ratio was determined as 1.01 ± 0.048.
Turning to AATAGGGCTT, the switch fluorescence ratio turned out to be 0.978 ± 0.04.
With GAGGTAAGTG the figure was 0.954 ± 0.024.
